These results are taken from the DeepSol protein solubility set.

The nature of the series: soluble on expression in E. coli; label from the status in PepcDB or PDB records.
For “MTSYDQIWETFLNNCETSDFDVPQQEEDIYKSIRNAILHFNNRLRDNLKADNSTETVNRELSEDDLLILAHFLRYIFLLNKKTLFENTWQPFTNDVGIKNFGTQLNSLKQSVMDQKDEIERLILNAAVDYLLEHHHHHH”, the “soluble on expression in E. coli” value is given as “not soluble”.

Take “MGNASENFDIEDLMSYGDDLINLLNVKNGFDIISQSSEQFKALNFACHEDFNQIQGSIEDCKTKLYACKKKTEEAYSDIAAEDEIERLQKELDEEMEREFKLKDELR”: the “soluble on expression in E. coli” value was “soluble”.

For “MGHHHHHHSHMQNADDFIKFLELEQHVEGGFYRSSYRSETAFDPSRQLWSSIYFLLRTGEVSHFHRLTADEMWYFHAGQSLTIYMISPEGELTTAQLGLDLAAGERPQFLVPKGCIFGSAMNQDGFSLVGCMVSPGFTFDDFELFSQEALLAMYPQHKAVVQKLSRPEVN”, the “soluble on expression in E. coli” value was “soluble”.

Consider “MGSDKIHHHHHHMSPSIYPKSNYPDAAILSRLAQQIKGWGKALGFARVGICDTDLTSEEIKLQTWLDKGYHGEMAYMASHGMMRARPQELHPGTVRVISVRMDYLPPEAGFATNLTDPNLGYISRYAGGRDYHKLIRARLKKLGDHISAELIALGFDAADFRPFVDSAPVLERPLAEKAGIGWTGKHSLILNHDSGSWFFLGELFINLPLPVDIPIQEACNTCVACMTSCPTGAIVEPYVVDGRRCISYLTIELQGAIPEEFRPLMGNRIYGCDDCQLVCPINRQAPLTTEIDFHIRPQLKQPDLLSLFAWSEAEFLKQTEGSAIRRIGHKRWLRNIAVALGNAPANPIILEALTNRQESADVDEMVLEHIQWAIDAQQSRLAASNTLVQQKSRRQTARMVRIIEKGLPRDA”, for which the “soluble on expression in E. coli” value was “not soluble”.

As to “MGSDKIHHHHHHMISEYEDIGLHNTCSEDGSFDVVLDSITNIAKYGMGIIAGVFIDMYSIIGNTDSKTIYTVRKGTLADYNARIIARSISGQVINTDPDTVVKMAEEGHMGLVGNEVQVGISYAEFAERLGIYAASCLIAARDQSFRSVLDQYQKGIEFIARNPEVSAEIISRKSNYYDEKTMKRIIGIYRHRLTTLRSDLERSISVYSAVEPSVYRLKILG”, the “soluble on expression in E. coli” value is given as “not soluble”.

Consider “MKLPPSLICPPLLALYRVWCRTLNFEEEGRAAVDVLWQERKPMVFALWHDELFPLMHVRRELEIVTVVSQSRDGEYLARVLQGLGLHTARGSSSRGGVKALLQAARMMQKQNLCGCVTVDGPRGPRHRVKEGAIFLAHRAKAPIVPIRLFMSRTKVFAKAWDKFQLPLPGSDVRVVFGAPYHTAENALESPRLEDERQRLEAKLEALALEHHHHHH”, for which the “soluble on expression in E. coli” value is on record as “soluble”.

“MRTLFLELMEQYVVAKNPKLMLRRSETVVERMLSNWMSICLYQYLKDSAGEPLYKLFKAIKHQVEKGPVDAVQKKAKYTLNDTGLLGDDVEYAPLTVSVIVQDEGIDAIPVKVLNCDTISQVKEKIIDQVYRTQPCSCWPKPDSVVLEWRPGSTAQILSDLDLTSQREGRWKRINTLMHYNVRDGATLILSKVGVSQQPEDSQQDLPGERHALLEEENRVWHLVRPTDEVDEGKSKRGSMKEKERTKAITEIYLTRLLSVKGTLQQFVDNFFQSVLAPGHAVPPAVKYFFDFLDEQAEKHDIRDEDTIHIWKTNSLPLRFWVNILKNPHFIFDVHVHEVVDASLSVIAQTFMDACTRTEHKLSRDSPSNKLLYAKEISTYKKMVEDYYKGIRQMVQVSDQDMNTHLAEISRAHTDSLNTLVALHQLYQYTQKYYDEIINALEEDPAAQKMQLAFRLQQIAAALENKVTDL”: the “soluble on expression in E. coli” value was “not soluble”.

For “MSGDGDSSTTSSAGDGSTSKDKIPAFSEIRVIEVNRDNFAKIWPYLLVCIKSADFTAIDLELSGLGGKGLRSRDIAERYQAIRDAAHTRSILSVGIATMKLTHKSEKRRALRYETQVFNILTFSEKPFTIEPSALQFLAKHSFDFNRLIQSGVRFQGANCPLKTLFRELLGSSATFCLHNGFIDLAFIYKQLYDIDLPDTLDGFVNNLSDMFPDNYLPVADSKYLAEYQTRMTASFLEYVFRRTQGDNEIERQNNRYHIEICFPSSEKSIKALKNATESVDVRLPEGFPDHAIPIDLHIHVCKYFAYHGFCHARNTEKGCKLLHDVDTAIDLQRIKENKKAFKRKRRYNNVIAESVAEKTGTDEEAWKNAKFEQNLLTRDFRELKRNVVTGLHRAGVDAFMTAFAVIYQQRRTLMADNSVDLKFLNRVPLSAKDKPLHLRHRPVPVPQSEQIDAHLEAMVEINKQRDYIRMNAAATVIKSVQKEDTPCED”, the “soluble on expression in E. coli” value is “not soluble”.

Turning to “MFKRTKLILIATILLSGCSTTNNESNNETKSVPEEMEASKYVGQGFQPPAEKDAVEFAKKHKDKIAKRGEQFFMDNFGLKVKATNVVGSGDGVEVFVHCDDHDIVFNASIPFDKSIIDSDSSLRSEDKGDDMSTLVGTVLSGFEYRAQKEKYDNLYKFFKENEKKYQYTGFTKEAINKTQNSGYENEYFYIVANIPTLQEYRKYYEPLIKKNNLNFKKGMKQARKGVGYKAAIEVHTTLFSRSSNFSKDKKLDDVIDLSESTKKLHLNFENTKIFLQLAKSTISTNRVNYSDNESIRIEVELEHHHHHH”, the “soluble on expression in E. coli” value was “soluble”.

“GPGSMPPKSAVKKVDSAAATGKRKKLSFAESTVKAAAAAIQTTHVNVPVRAAAKHAPLAAAPRKKGQNAKKTTATTSSAARQRAATDLKRSGIVKAKRAEEEVAAPPVPSDEENSRDDEDDMLNGGAAVDSDTDDLSDMADRTPSDDELGAGKQASSSASRQRDSNGTVEPYRAVRLSFLPPEFQEPQLYKFLNQFGATVLNCFCVRSKRTHRSRGIAYVEFDKESAIPLVVEECNGMVLGGKAVRARAVTMRRRMPSRQMVDRRRALAYAYKTRGAPLKQHDVRRKGPVGLLIKAVRTEKNNNNYLKSLGIDFQTDFFQSQLATLPPVLLKKKRSRSKKSEKGTVATAGMAKAVVKTTDIATVASKSSPKRATRKAPATKTK”: the “soluble on expression in E. coli” value is on record as “soluble”.

Consider “MGHHHHHHSHMDAIHKQKSLQFKKTMDAKKNYEQKCRDKDEAEQAVSRSANLVNPKQQEKLFVKLATSKTAVEDSDKAYMLHIGTLDKVREEWQSEHIKACEAFEAQECERINFFRNALWLHVNQLSQQCVTSDEMYEQVRKSLEMCSIQRDIEYFVNQRKTGQIPPAPIMHENFYSSQKNAVPAGKATGPNLARRGPLPIPKSSPDDPNYSLVDDYSLLYQ”, for which the “soluble on expression in E. coli” value is given as “not soluble”.

With “MGMTRNLLAAGLAAVLALPALAAELVMVEQHGCEWCARWNEEIAPIYPKTAEGAFAPLRRVDLRAIPADLETARRVVFTPTFLIVEDGRELARLEGYPGEDFFWPLLEQLLVDHAGFVPKKPGSS”, the “soluble on expression in E. coli” value is reported as “not soluble”.

As for “MFSEELEKIDWEETTKTIYSKTESDVLRALGKEHCDVDDFMALISPAAAKYLEPMAQLSKKYTEERFGKTISMFIPLYITNSCTNSCVYCGFHISNPMARTILTPEQIEDEYKAIKKLGPFENLLLVTGENPAKAGVPYLAKALDIAKKYFSNLKIEVMPLKAEEYAELKEHGLNGVICFQETYNKARYNIYHPRGMKSKFEWRVNGFDRMGQAGVHSIGMGVLIGLEEWRTDVTMMAYHLRYLQKKYWKTKYSVNFPRMRPAENGGFQPNVIMNDRELAQLTFAMRIFDHDVDISYSTREPAQIRDNMAGLGVTTMSAESKTEPGGYYTYPQALEQFHVSDERTAVEVEHALKSLGREPVWKDWDVSFDKFTPIR”, the “soluble on expression in E. coli” value is on record as “not soluble”.

As to “MPNNETEASMRNTLFPTLKWSLLVLMTSLLTACGFHLRGDYDIPQELSRMSLTSYDQYSTFTRMVHRQLRLNKIDLQAPAEDLPNLHLLSESTGERTLSLYQNTRAAEIELTFVASYRVTVPELGSRTFTTSVTRSYLDNPLTALAKSVERDMIEDEMRKLAASQIVRQMARLKADFARKTLDDESIEGKGITDYRVDTQEVANPVSTEGSSELEHHHHHH”, the “soluble on expression in E. coli” value is listed as “soluble”.

As to “MSLKPVVVMTQTNDMQSDLVSIIHKPFIDIKPLNFDIHLLNQRYDWLIFSSKNAVKFFYKYLKGINVDNIAVIGSKTAQYCESLGIRVDFMPNDFSQEGFLKSFNQTNQKILLPSSELARPLLLAALSKDNEVVKIDLYTSVPNKQNIQDVKEMIEHQQIDALTFSSSSAVRYYFNEGFVPKFKSYFAIGEQTARTIKTYQQPVTIAEIQTLESLIEKILESRGEGHHHHHH”, the “soluble on expression in E. coli” value is listed as “soluble”.

With “MPGKRRFRRSPVKYDFFTRLLQTGFLSTDSLLYPESQFHICTQLSSQDAYADNLEHHHHHH”, the “soluble on expression in E. coli” value was “not soluble”.
